How the values were obtained:
[1] = biological target: human CD137 expressed on cells (Jurkat human CD137 NF-kB luciferase reporter cells; human CD8+ T cells) (human, UniProt Q07011 24-255); assay: cell-based or functional assay
[2] = biological target: T1, recombinant Fc-tagged ectodomain of human CD137 (Acro Biosystems 41B-H5258) (human, UniProt Q07011 24-186); assay: SPR, Biacore 8K, single-cycle kinetics; Fc-tagged ectodomain captured on Protein G chip; 1:1 model
T1 construct: Bought protein; not shown: Fc tag
Description: (§1) Binding of Humabody® VH constructs was measured using a single-cycle kinetics method using the BIAcore 8K instrument with 90 second sample injections with a sample concentration range of low nanomolar to high nanomolar. […] The Protein G sensor surface was regenerated with a 20 second injection of 10 mM Glycine buffer, pH 1.5 (GE Healthcare BR100354). Data were analysed using a 1:1 binding model in Biacore Insight Evaluation software, including Humabody® VH constructs with two PD-1 arms.

[3] = biological target: T2, recombinant Fc-tagged ectodomain of human PD1 (Acro Biosystems PD1-H5257) (human, UniProt Q15116 25-170); assay: SPR, Biacore 8K, single-cycle kinetics; Fc-tagged ectodomain captured on Protein G chip; 1:1 model (construct with two PD-1 arms)
T2 construct: Bought protein; not shown: Fc tag
Description: as §1

[4] = biological target: T3, human CD137 expressed on CHO cells (human, UniProt Q07011 18-255); assay: flow cytometry on CHO huCD137 cells
T3 construct: also called CHO huCD137; CHO human CD137 cells

[5] = biological target: T4, human PD-1 expressed on CHO cells (human, UniProt Q15116 21-288); assay: FMAT/Mirrorball on CHO huPD1 cells
T4 construct: also called CHO huPD1; CHO human PD1 cells
Procedure, shortened: (§2)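 His-tagged VH molecules bound to CHO cells expressing human PD-1 or human CD137, with CHO parent cells as control, in PBS pH 7.4, 0.1% BSA, 0.05% sodium azide. Read by FMAT on Mirrorball (ex 488/640 nm); binding taken as FL2 median fluorescence intensity of FL5-gated events.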

[6] = biological target: T4, human PD-1 expressed on CHO cells; assay: flow cytometry on CHO huPD1 cells
[7] = biological target: T3, human CD137 expressed on CHO cells; assay: FMAT/Mirrorball on CHO huCD137 cells
Procedure, shortened: as §2

EC50 [4] | EC50 [5] | EC50 [6] | EC50 [7] | Binder | further results
– | – | – | – | TPP-1438 CD137A-6GS-HSA2-6GS-PD138G7(G109D)-6GS-PD138G7(G109D) (bispecific antibody, Single-chain fusion of four VH single domains, two PD-1 arms) EVQLVESGGGLVQPGGSLRLSCAASGFTLSNYWMNWVRQAPGKGLEWVANINQDGSERYYVDSVKGRFTISRDNAKNSLYLQMNSLRAEDTAVYYCARGGEGYGVDHYGLDVSGQGTTVTVSSGGGGSGGGGSGGGGSGGGGSGGGGSGGGGSEVQLVESGGGLVKPGGSLRLSCAASGFTFSNYNMNWVRQAPGKGLEWVSSISSAGTHIYYADSVKGRFTISRDNAKNSLYLQMNSLRAEDTAVYYCARDPHSTGWYKDFDYWGQGTLVTVSSGGGGSGGGGSGGGGSGGGGSGGGGSGGGGSEVQLVESGGGVVRPGGSLRLSCAASGFTFDDYAMSWVRQAPGKGLEWVSGITWNGGSTGYADSVKDRFTISRDNAKNSLYLQMNSLRAEDTALYYCVRDKYSYAWSYDDFDIWGQGTMVTVSSGGGGSGGGGSGGGGSGGGGSGGGGSGGGGSEVQLVESGGGVVRPGGSLRLSCAASGFTFDDYAMSWVRQAPGKGLEWVSGITWNGGSTGYADSVKDRFTISRDNAKNSLYLQMNSLRAEDTALYYCVRDKYSYAWSYDDFDIWGQGTMVTVSS | Jurkat-CD137/CHO-PD-1 Reporter Assay EC50 [1]: 0.00466 nM; Kd [2]: 0.62 nM; koff [2]: 0.00011 s⁻¹; kon [2]: 500000 M⁻¹ s⁻¹; Kd [3]: 0.0951 nM; koff [3]: 5.02e-05 s⁻¹; kon [3]: 527000 M⁻¹ s⁻¹
0.595 nM | 0.481 nM | 108 nM | 0.0781 nM | TPP-973: CD137A -6GS-PDA2-6GS-HSA2-His (bispecific antibody, Single-chain VH fusion (CD137 VH, PD-1 VH, HSA VH), His tag) EVQLVESGGGLVQPGGSLRLSCAASGFTLSNYWMNWVRQAPGKGLEWVANINQDGSERYYVDSVKGRFTISRDNAKNSLYLQMNSLRAEDTAVYYCARGGEGYGVDHYGLDVSGQGTTVTVSSGGGGSGGGGSGGGGSGGGGSGGGGSGGGGSEVQLVESGGGVVRPGGSLRLSCAASGFTFDDYAMSWVRQAPGKGLEWVSGITWNAGSTGYADSVKGRFTISRDNAKNSLYLQMNSLRAEDTALYYCVRDKYSYAWSYDDFDIWGQGTMVTVSSGGGGSGGGGSGGGGSGGGGSGGGGSGGGGSEVQLVESGGGLVKPGGSLRLSCAASGFTFSNYNMNWVRQAPGKGLEWVSSISSAGTHIYYADSVKGRFTISRDNAKNSLYLQMNSLRAEDTAVYYCARDPHSTGWYKDFDYWGQGTLVTVSSAAAHHHHHH | –
1.99 nM | 0.583 nM | 22.7 nM | 0.151 nM | TPP-1028: CD137A -6GS-HSA3-6GS-PD138G7(G109D)-His (bispecific antibody, Single-chain VH fusion (CD137 VH, HSA VH, PD-1 VH), His tag) EVQLVESGGGLVQPGGSLRLSCAASGFTLSNYWMNWVRQAPGKGLEWVANINQDGSERYYVDSVKGRFTISRDNAKNSLYLQMNSLRAEDTAVYYCARGGEGYGVDHYGLDVSGQGTTVTVSSGGGGSGGGGSGGGGSGGGGSGGGGSGGGGSEVQLLESGGGLVKPGGSLRLSCAASGFTVSSYTMNWVRQAPGKGLEWVSSISSSGRYIYYADSVKGRFTISRDNAKNSLYLQMNSLRAEDTAVYYCARDPRMVGNPHEFDIWGQGTMVTVSSGGGGSGGGGSGGGGSGGGGSGGGGSGGGGSEVQLVESGGGVVRPGGSLRLSCAASGFTFDDYAMSWVRQAPGKGLEWVSGITWNGGSTGYADSVKDRFTISRDNAKNSLYLQMNSLRAEDTALYYCVRDKYSYAWSYDDFDIWGQGTMVTVSSAAAHHHHHH | –
4.4 nM | – | 183 nM | – | TPP-1245 CD137A-6GS-PDA2-6GS-HSA2 (bispecific antibody) EVQLVESGGGLVQPGGSLRLSCAASGFTLSNYWMNWVRQAPGKGLEWVANINQDGSERYYVDSVKGRFTISRDNAKNSLYLQMNSLRAEDTAVYYCARGGEGYGVDHYGLDVSGQGTTVTVSSGGGGSGGGGSGGGGSGGGGSGGGGSGGGGSEVQLVESGGGVVRPGGSLRLSCAASGFTFDDYAMSWVRQAPGKGLEWVSGITWNAGSTGYADSVKGRFTISRDNAKNSLYLQMNSLRAEDTALYYCVRDKYSYAWSYDDFDIWGQGTMVTVSSGGGGSGGGGSGGGGSGGGGSGGGGSGGGGSEVQLVESGGGLVKPGGSLRLSCAASGFTFSNYNMNWVRQAPGKGLEWVSSISSAGTHIYYADSVKGRFTISRDNAKNSLYLQMNSLRAEDTAVYYCARDPHSTGWYKDFDYWGQGTLVTVSS | –
4.45 nM | – | 22.7 nM | – | TPP-1290 PD138G7(G109D)-6GS-CD137A-6GS-HSA2 (bispecific antibody) EVQLVESGGGVVRPGGSLRLSCAASGFTFDDYAMSWVRQAPGKGLEWVSGITWNGGSTGYADSVKDRFTISRDNAKNSLYLQMNSLRAEDTALYYCVRDKYSYAWSYDDFDIWGQGTMVTVSSGGGGSGGGGSGGGGSGGGGSGGGGSGGGGSEVQLVESGGGLVQPGGSLRLSCAASGFTLSNYWMNWVRQAPGKGLEWVANINQDGSERYYVDSVKGRFTISRDNAKNSLYLQMNSLRAEDTAVYYCARGGEGYGVDHYGLDVSGQGTTVTVSSGGGGSGGGGSGGGGSGGGGSGGGGSGGGGSEVQLVESGGGLVKPGGSLRLSCAASGFTFSNYNMNWVRQAPGKGLEWVSSISSAGTHIYYADSVKGRFTISRDNAKNSLYLQMNSLRAEDTAVYYCARDPHSTGWYKDFDYWGQGTLVTVSS | –
1.47 nM | 0.173 nM | 5.01 nM | 0.0672 nM | TPP-1027: CD137A -6GS-HSA2-6GS-PD138G7(G109D)-His (bispecific antibody, Single-chain VH fusion (CD137 VH, HSA VH, PD-1 VH), His tag) EVQLVESGGGLVQPGGSLRLSCAASGFTLSNYWMNWVRQAPGKGLEWVANINQDGSERYYVDSVKGRFTISRDNAKNSLYLQMNSLRAEDTAVYYCARGGEGYGVDHYGLDVSGQGTTVTVSSGGGGSGGGGSGGGGSGGGGSGGGGSGGGGSEVQLVESGGGLVKPGGSLRLSCAASGFTFSNYNMNWVRQAPGKGLEWVSSISSAGTHIYYADSVKGRFTISRDNAKNSLYLQMNSLRAEDTAVYYCARDPHSTGWYKDFDYWGQGTLVTVSSGGGGSGGGGSGGGGSGGGGSGGGGSGGGGSEVQLVESGGGVVRPGGSLRLSCAASGFTFDDYAMSWVRQAPGKGLEWVSGITWNGGSTGYADSVKDRFTISRDNAKNSLYLQMNSLRAEDTALYYCVRDKYSYAWSYDDFDIWGQGTMVTVSSAAAHHHHHH | –
2.48 nM | – | 20.5 nM | – | TPP-1246 CD137A-6GS-HSA2-6GS-PD138G7(G109D) (bispecific antibody) EVQLVESGGGLVQPGGSLRLSCAASGFTLSNYWMNWVRQAPGKGLEWVANINQDGSERYYVDSVKGRFTISRDNAKNSLYLQMNSLRAEDTAVYYCARGGEGYGVDHYGLDVSGQGTTVTVSSGGGGSGGGGSGGGGSGGGGSGGGGSGGGGSEVQLVESGGGLVKPGGSLRLSCAASGFTFSNYNMNWVRQAPGKGLEWVSSISSAGTHIYYADSVKGRFTISRDNAKNSLYLQMNSLRAEDTAVYYCARDPHSTGWYKDFDYWGQGTLVTVSSGGGGSGGGGSGGGGSGGGGSGGGGSGGGGSEVQLVESGGGVVRPGGSLRLSCAASGFTFDDYAMSWVRQAPGKGLEWVSGITWNGGSTGYADSVKDRFTISRDNAKNSLYLQMNSLRAEDTALYYCVRDKYSYAWSYDDFDIWGQGTMVTVSS | –
3.39 nM | – | 25.4 nM | – | TPP-1247 CD137A-6GS-HSA3-6GS-PD138G7(G109D) (bispecific antibody) EVQLVESGGGLVQPGGSLRLSCAASGFTLSNYWMNWVRQAPGKGLEWVANINQDGSERYYVDSVKGRFTISRDNAKNSLYLQMNSLRAEDTAVYYCARGGEGYGVDHYGLDVSGQGTTVTVSSGGGGSGGGGSGGGGSGGGGSGGGGSGGGGSEVQLLESGGGLVKPGGSLRLSCAASGFTVSSYTMNWVRQAPGKGLEWVSSISSSGRYIYYADSVKGRFTISRDNAKNSLYLQMNSLRAEDTAVYYCARDPRMVGNPHEFDIWGQGTMVTVSSGGGGSGGGGSGGGGSGGGGSGGGGSGGGGSEVQLVESGGGVVRPGGSLRLSCAASGFTFDDYAMSWVRQAPGKGLEWVSGITWNGGSTGYADSVKDRFTISRDNAKNSLYLQMNSLRAEDTALYYCVRDKYSYAWSYDDFDIWGQGTMVTVSS | –
9.39 nM | 0.162 nM | 0.531 nM | 0.101 nM | TPP-1010: PD138G7(G109D)-6GS-HSA2-6GS- CD137D -His (bispecific antibody, Single-chain VH fusion (PD-1 VH, HSA VH, CD137 VH), His tag) EVQLVESGGGVVRPGGSLRLSCAASGFTFDDYAMSWVRQAPGKGLEWVSGITWNGGSTGYADSVKDRFTISRDNAKNSLYLQMNSLRAEDTALYYCVRDKYSYAWSYDDFDIWGQGTMVTVSSGGGGSGGGGSGGGGSGGGGSGGGGSGGGGSEVQLVESGGGLVKPGGSLRLSCAASGFTFSNYNMNWVRQAPGKGLEWVSSISSAGTHIYYADSVKGRFTISRDNAKNSLYLQMNSLRAEDTAVYYCARDPHSTGWYKDFDYWGQGTLVTVSSGGGGSGGGGSGGGGSGGGGSGGGGSGGGGSEVQLVESGGGVVQPGGSLRLSCAASGFTFSNYGMHWVRQAPGKGLEWVAVISNDGNTKTYADSVKGRFTISRDNSKNTLYLQMNSLRAEDTAVYYCAQDETTTVTASYYFDYWGQGTLVTVSSAAAHHHHHH | –

From patent US20220220215A1 (CRESCENDO BIOLOGICS, published 2022)
